In experiment [1] the target is M2trunk(1–228) (human) (UniProt P08172).
In experiment [2] the target is M2trunk(1–283) (human) (UniProt P08172).

In experiment [1], “M2tail(368–466) (from UniProt P08172 368-466) (domain or fragment)” returned a Bmax of [3H]NMS binding sites in COS-7 cells cotransfected with both fragments (M2trunk(1–228) alone: N.B.) of 70 fmol/mg and a Maximum inhibition of forskolin stimulated cAMP accumulation (%) by carbachol in COS-7 cells cotransfected with both fragments of 29%.
In the case of “M2tail(M-281-466) (from UniProt P08172 281-466) (domain or fragment)”, in experiment [2], the Bmax of [3H]NMS binding sites in COS-7 cells cotransfected with both fragments (M2trunk(1–283) alone: N.B.) was determined as 480 fmol/mg and the Maximum inhibition of forskolin stimulated cAMP accumulation (%) by carbachol in COS-7 cells cotransfected with both fragments is 37%.

The record behind these values is article PMC11093360.
